Source: patent US20190309050A1 (SUZHOU THINKING POWER BIOTECHNOLOGY, published 2019)

B1: Slit2N protein (ligand, UniProt O94813 31-1121, looked up)
chain: QCSCSGSTVDCHGLALRSVPRNIPRNTERLDLNGNNITRITKTDFAGLRHLRVLQLMENKISTIERGAFQDLKELERLRLNRNHLQLFPELLFLGTAKLYRLDLSENQIQAIPRKAFRGAVDIKNLQLDYNQISCIEDGAFRALRDLEVLTLNNNNITRLSVASFNHMPKLRTFRLHSNNLYCDCHLAWLSDWLRQRPRVGLYTQCMGPSHLRGHNVAEVQKREFVCSGHQSFMAPSCSVLHCPAACTCSNNIVDCRGKGLTEIPTNLPETITEIRLEQNTIKVIPPGAFSPYKKLRRIDLSNNQISELAPDAFQGLRSLNSLVLYGNKITELPKSLFEGLFSLQLLLLNANKINCLRVDAFQDLHNLNLLSLYDNKLQTIAKGTFSPLRAIQTMHLAQNPFICDCHLKWLADYLHTNPIETSGARCTSPRRLANKRIGQIKSKKFRCSAKEQYFIPGTEDYRSKLSGDCFADLACPEKCRCEGTTVDCSNQKLNKIPEHIPQYTAELRLNNNEFTVLEATGIFKKLPQLRKINFSNNKITDIEEGAFEGASGVNEILLTSNRLENVQHKMFKGLESLKTLMLRSNRITCVGNDSFIGLSSVRLLSLYDNQITTVAPGAFDTLHSLSTLNLLANPFNCNCYLAWLGEWLRKKRIVTGNPRCQKPYFLKEIPIQDVAIQDFTCDDGNDDNSCSPLSRCPTECTCLDTVVRCSNKGLKVLPKGIPRDVTELYLDGNQFTLVPKELSNYKHLTLIDLSNNRISTLSNQSFSNMTQLLTLILSYNRLRCIPPRTFDGLKSLRLLSLHGNDISVVPEGAFNDLSALSHLAIGANPLYCDCNMQWLSDWVKSEYKEPGIARCAGPGEMADKLLLTTPSKKFTCQGPVDVNILAKCNPCLSNPCKNDGTCNSDPVDFYRCTCPYGFKGQDCDVPIHACISNPCKHGGTCHLKEGEEDGFWCICADGFEGENCEVNVDDCEDNDCENNSTCVDGINNYTCLCPPEYTGELCEEKLDFCAQDLNPCQHDSKCILTPKGFKCDCTPGYVGEHCDIDFDDCQDNKCKNGAHCTDAVNGYTCICPEGYSGLFCEFSPPMVLPR

Legend:
[1] = biological target: Robo1 protein (ORIGEN, Art. No.: TP327713) (UniProt Q9Y6N7); experiment: SPR (BIAcore), Robo1 bound to CM5 chip; column headed 'Kd(nM)'
Chain of Robo1 protein (ORIGEN, Art. No.: TP327713) (UniProt Q9Y6N7) (Q9Y6N7 other isoform, or with tags, fused parts or gaps limits assumed): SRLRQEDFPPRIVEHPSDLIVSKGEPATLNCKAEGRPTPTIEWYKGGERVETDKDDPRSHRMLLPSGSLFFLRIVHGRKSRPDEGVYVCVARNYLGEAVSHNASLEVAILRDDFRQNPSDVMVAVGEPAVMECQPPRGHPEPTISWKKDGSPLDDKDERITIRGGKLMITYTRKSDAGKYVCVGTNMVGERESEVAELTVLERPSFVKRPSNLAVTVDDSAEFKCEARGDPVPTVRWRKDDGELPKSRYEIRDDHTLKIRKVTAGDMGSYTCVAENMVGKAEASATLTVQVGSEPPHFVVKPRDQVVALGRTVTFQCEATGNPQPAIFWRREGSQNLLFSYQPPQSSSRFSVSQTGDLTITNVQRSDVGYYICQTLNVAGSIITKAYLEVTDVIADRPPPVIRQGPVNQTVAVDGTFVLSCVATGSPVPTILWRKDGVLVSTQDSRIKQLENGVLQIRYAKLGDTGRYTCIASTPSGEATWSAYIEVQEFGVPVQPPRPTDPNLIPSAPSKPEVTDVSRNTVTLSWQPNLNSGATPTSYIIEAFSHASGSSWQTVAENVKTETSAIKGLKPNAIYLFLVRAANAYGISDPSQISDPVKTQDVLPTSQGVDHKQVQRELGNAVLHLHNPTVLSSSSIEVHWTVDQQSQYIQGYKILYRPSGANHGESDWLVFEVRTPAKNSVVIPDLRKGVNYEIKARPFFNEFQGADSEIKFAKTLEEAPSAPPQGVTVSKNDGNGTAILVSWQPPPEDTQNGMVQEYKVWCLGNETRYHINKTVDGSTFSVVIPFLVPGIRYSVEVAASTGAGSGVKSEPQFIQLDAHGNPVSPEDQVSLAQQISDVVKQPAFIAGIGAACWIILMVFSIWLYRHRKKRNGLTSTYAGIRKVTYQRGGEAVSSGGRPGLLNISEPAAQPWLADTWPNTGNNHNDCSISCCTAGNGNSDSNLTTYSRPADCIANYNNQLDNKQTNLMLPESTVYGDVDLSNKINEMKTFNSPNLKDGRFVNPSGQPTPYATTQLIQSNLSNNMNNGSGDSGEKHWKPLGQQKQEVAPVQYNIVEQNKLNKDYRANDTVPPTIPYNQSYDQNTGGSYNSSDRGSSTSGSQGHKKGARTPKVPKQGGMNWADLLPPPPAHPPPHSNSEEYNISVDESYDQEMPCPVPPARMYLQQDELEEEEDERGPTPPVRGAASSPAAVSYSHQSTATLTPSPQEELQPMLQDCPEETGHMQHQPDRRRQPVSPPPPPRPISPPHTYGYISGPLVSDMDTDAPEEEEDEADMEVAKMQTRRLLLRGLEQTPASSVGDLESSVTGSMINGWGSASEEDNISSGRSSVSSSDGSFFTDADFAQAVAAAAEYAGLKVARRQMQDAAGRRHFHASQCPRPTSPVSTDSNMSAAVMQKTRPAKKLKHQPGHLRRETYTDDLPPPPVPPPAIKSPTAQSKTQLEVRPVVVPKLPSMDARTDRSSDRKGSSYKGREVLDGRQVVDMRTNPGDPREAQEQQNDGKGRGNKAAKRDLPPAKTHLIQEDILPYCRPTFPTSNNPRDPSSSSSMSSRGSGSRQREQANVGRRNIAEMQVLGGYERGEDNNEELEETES

[2] = biological target: Robo1 protein (ORIGEN, Art. No.: TP327713) (UniProt Q9Y6N7); experiment: SPR (BIAcore), Robo1 bound to CM5 chip
[3] = biological target: Robo1 protein (ORIGEN, Art. No.: TP327713) (UniProt Q9Y6N7); experiment: ELISA, Robo1 coated at 1 µg/ml, detection with anti-HSA-HRP; stability test, samples 'after treatment' (treatment not described); after treatment (stability test), binding ELISA on coated Robo1
[4] = biological target: T1, Robo1 protein (ORIGEN, Art. No.: TP327713) (UniProt Q9Y6N7-5 1-1606, limits assumed); experiment: SPR (BIAcore), Robo1 bound to CM5 chip; column headed 'KD(M)', by arithmetic the dissociation rate; exponent doubtful
T1 construct: Bought recombinant protein; also called receptor Robo1; receptor protein Robo1
T1 sequence (Q9Y6N7 other isoform, or with tags, fused parts or gaps limits assumed): as above
Procedure: (§1) The affinity constant between the protein and Robo1 protein was detected by SPR (Surface Plasmon resonance BIAcore 200) method. […] Kinetic measurements were performed according to the method referred by Canziani et al. (2004, Anal. Biochem. 325: 301-307). Furthermore, the affinity of the Slit2N protein (Slit2N is a protein having a molecular weight of about 120 kDa at the N-terminus of the Slit2 protein) to Robo1 protein was also determined by the same method.

[5] = biological target: T1, Robo1 protein (ORIGEN, Art. No.: …); experiment: SPR (BIAcore), Robo1 bound to CM5 chip
Procedure: as §1

[6] = biological target: T1, Robo1 protein (ORIGEN, Art. No.: …); experiment: SPR (BIAcore), Robo1 bound to CM5 chip; column headed 'Kd(nM)'
Procedure: as §1

Molecule | Kd [1] [nM] | kon [2] [M⁻¹ s⁻¹] | EC50 [3] [nM] | koff [4] [s⁻¹] | kon [5] [M⁻¹ s⁻¹] | Kd [6] [nM]
Slit2D2-HSA (as disclosed in Patent Application PCT/CN2015/092079) (from UniProt O94813 271-479; P02768 25-609) | 2.8 | 177000 | 215 | – | – | –
B1 | – | – | – | 0.00339 | 744000 | 4.5
